Experimental data as given in publication PMC4895224.

Target: 2-Cysteine peroxiredoxin (BxPrx) of Bursaphelenchus xylophilus (Bursaphelenchus xylophilus (endogenous in the nematode))
Test: SDS-PAGE and immunoblot of the inter-molecular dimer; nematodes incubated in 0, 1 and 5 mM H2O2 for 5 min, harvested in 20% TCA, resuspended in SDS-PAGE loading buffer, 12% SDS-PAGE, Western blot with anti-BxPrx serum; 80 ug protein extract per lane

With “2-Cysteine peroxiredoxin (BxPrx) of Bursaphelenchus xylophilus (natural protein)” as the substance, how does the stoichiometry N read?
The stoichiometry N was 2.
